doi:10.1101/2020.08.05.237479

Target: MBP-NES^MVM
Assay: MST

yCRM1a C152S/C539T (from UniProt P30822 1-1055) (receptor)
fold weaker affinity than the C152/C539/C1022 triple mutant: 5 fold
